This is an account of results in patent publication US20020156009A1 (published 2002).

Assay [1] has as its target interleukin-1 (IL-1) receptor on human cells (human) (UniProt P14778). The experiment in a line: cell-based or functional assay.
Assay [2] concerns the target T1, bovine serum albumin (BSA) (bovine, UniProt P02769 25-607).
T1 construct: also called non-related protein
The experiment in a line: FACS on human fibroblast cells (CCD 1089). The procedure:
A cell binding assay was carried out, in a modification of the procedure as described above in Example 7.1, to determine if IL-1 Hy2 of the invention binds to the interleukin-1 (IL-1) receptor. Briefly, fluorescent activated cell sorting (FACS) was used to measure cell binding of the recombinant protein (see Example 6) using fluorescent antibodies specific for the express tag on the IL-1 Hy2 recombinant protein. In each reaction, 10⁶ cells of human fibroblast cells (CCD 1089) were suspended in 100 μl of FACS buffer (containing distilled PBS, 3% calf serum and 0.01% azide). Cell binding reactions included 5 nM recombinant IL-1 Hy2 in 100 μl cell suspension. The cells were incubated on ice for one hour. The cells were pelleted by centrifugation, 200 μl of 0.2 mM BS3 (crosslinker) was added, and the cells were kept on ice for 30 minutes. Next, 10 μl […] pH 7.5 was added and the cells were incubated for 15 minutes on ice. The cells were pelleted by centrifugation, washed one time in FACS buffer, resuspended in 100 μl volume of FACS buffer, 2 μl primary antibody (anti-express tag antibody 1 mg/ml) was added, and incubation continued on ice for an additional 30 minutes. […] The cells were again pelleted by centrifugation, washed two times with FACS buffer, resuspended in 0.5 ml FACS buffer and analyzed on FACS.

T1 sequence (P02769 25-607 limits assumed): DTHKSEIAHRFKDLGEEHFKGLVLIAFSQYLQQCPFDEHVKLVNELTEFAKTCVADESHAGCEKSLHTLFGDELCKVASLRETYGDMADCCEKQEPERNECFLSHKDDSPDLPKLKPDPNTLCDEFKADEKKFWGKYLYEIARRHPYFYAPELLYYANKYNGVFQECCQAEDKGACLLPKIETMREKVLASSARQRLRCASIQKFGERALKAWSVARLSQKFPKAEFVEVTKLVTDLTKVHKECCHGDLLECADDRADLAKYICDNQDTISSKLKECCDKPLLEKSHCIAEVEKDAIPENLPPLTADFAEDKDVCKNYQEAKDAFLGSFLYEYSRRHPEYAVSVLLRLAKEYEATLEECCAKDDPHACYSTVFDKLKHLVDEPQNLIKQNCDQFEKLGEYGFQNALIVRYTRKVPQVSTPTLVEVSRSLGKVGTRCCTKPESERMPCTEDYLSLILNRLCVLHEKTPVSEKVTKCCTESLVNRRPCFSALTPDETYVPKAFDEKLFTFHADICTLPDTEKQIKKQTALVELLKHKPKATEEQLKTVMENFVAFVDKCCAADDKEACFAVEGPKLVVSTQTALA

In the case of “IL-1 Hy2 (preparation used in the cell-based activity assays) (from UniProt Q8WWZ1 1-152) (ligand)”, the inhibition of IL-1β induced PGE2 production, human fibroblasts (CCD 1098), 1 ng/ml IL-1β, IL-1 Hy2 at 1000 fold excess, PGE2 ELISA in assay [1] lay within 40 to 60%.

B1: interleukin-1 (IL-1) receptor on human cells (receptor, UniProt P14778 18-569, looked up)
chain: LEADKCKEREEKIILVSSANEIDVRPCPLNPNEHKGTITWYKDDSKTPVSTEQASRIHQHKEKLWFVPAKVEDSGHYYCVVRNSSYCLRIKISAKFVENEPNLCYNAQAIFKQKLPVAGDGGLVCPYMEFFKNENNELPKLQWYKDCKPLLLDNIHFSGVKDRLIVMNVAEKHRGNYTCHASYTYLGKQYPITRVIEFITLEENKPTRPVIVSPANETMEVDLGSQIQLICNVTGQLSDIAYWKWNGSVIDEDDPVLGEDYYSVENPANKRRSTLITVLNISEIESRFYKHPFTCFAKNTHGIDAAYIQLIYPVTNFQKHMIGICVTLTVIIVCSVFIYKIFKIDIVLWYRDSCYDFLPIKASDGKTYDAYILYPKTVGEGSTSDCDIFVFKVLPEVLEKQCGYKLFIYGRDDYVGEDIVEVINENVKKSRRLIIILVRETSGFSWLGGSSEEQIAMYNALVQDGIKVVLLELEKIQDYEKMPESIKFIKQKHGAIRWSGDFTQGPQSAKTRFWKNVRYHMPVQRRSPSSKHQLLSPATKEKLQREAHVPLG
notes: whole, on cells
Take B1: the binding result in assay [2] was “no binding (tested: same molarity as IL-1 Hy2 (5 nM))”.
